Laboratory results: patent EP2014310A2 (Dyax Corporation, dated 2009)
Read-outs that look alike come from different tables or passages of the source. Bridge positions count the residues as written; N and C are the ends. Side chains are listed from the residue outwards. I, II: the chains in the order shown. * marks the point of attachment. Biotin = O=C1N[C@H]2[C@H](CS[C@H]2CCCCC(=O)*)N1; ivDde = CC(C)CC(=C1C(=O)CC(C)(C)CC1=O)*; AEEA = NCCOCCOCC(=O)O

Legend:
[1] = molecular target: T1, human KDR-Fc fusion (R&D Systems #357-KD-050) (human, UniProt P35968 20-764); test: phage binding screen on KDR-Fc; class legend in paragraph 246
T1 construct: bought
T1 sequence (P35968 20-764): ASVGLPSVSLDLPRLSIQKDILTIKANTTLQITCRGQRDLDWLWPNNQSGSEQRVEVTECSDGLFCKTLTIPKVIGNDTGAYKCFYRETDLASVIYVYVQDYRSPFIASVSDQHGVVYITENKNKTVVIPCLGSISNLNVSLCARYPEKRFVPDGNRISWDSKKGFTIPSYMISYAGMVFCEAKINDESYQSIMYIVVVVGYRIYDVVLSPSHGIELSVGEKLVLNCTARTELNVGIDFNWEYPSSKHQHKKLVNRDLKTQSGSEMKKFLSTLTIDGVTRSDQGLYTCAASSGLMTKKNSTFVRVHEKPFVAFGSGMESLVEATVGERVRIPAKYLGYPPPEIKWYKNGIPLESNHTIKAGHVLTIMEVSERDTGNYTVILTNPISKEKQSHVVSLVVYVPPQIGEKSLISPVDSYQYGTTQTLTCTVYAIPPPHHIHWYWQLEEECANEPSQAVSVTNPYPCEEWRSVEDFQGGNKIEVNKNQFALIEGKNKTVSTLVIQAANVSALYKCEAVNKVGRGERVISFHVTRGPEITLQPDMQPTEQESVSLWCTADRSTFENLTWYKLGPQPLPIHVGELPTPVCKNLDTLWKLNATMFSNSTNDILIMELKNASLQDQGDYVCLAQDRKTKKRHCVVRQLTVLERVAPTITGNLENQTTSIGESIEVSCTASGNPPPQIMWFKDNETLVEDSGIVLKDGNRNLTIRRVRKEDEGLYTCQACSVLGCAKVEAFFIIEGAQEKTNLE

[2] = molecular target: KDR on transiently KDR-transfected 293H cells (human) (UniProt P35968); test: neutravidin-HRP complexes, KDR minus mock 293H cells
KDR on transiently KDR-transfected 293H cells (human), sequence (P35968 20-1356): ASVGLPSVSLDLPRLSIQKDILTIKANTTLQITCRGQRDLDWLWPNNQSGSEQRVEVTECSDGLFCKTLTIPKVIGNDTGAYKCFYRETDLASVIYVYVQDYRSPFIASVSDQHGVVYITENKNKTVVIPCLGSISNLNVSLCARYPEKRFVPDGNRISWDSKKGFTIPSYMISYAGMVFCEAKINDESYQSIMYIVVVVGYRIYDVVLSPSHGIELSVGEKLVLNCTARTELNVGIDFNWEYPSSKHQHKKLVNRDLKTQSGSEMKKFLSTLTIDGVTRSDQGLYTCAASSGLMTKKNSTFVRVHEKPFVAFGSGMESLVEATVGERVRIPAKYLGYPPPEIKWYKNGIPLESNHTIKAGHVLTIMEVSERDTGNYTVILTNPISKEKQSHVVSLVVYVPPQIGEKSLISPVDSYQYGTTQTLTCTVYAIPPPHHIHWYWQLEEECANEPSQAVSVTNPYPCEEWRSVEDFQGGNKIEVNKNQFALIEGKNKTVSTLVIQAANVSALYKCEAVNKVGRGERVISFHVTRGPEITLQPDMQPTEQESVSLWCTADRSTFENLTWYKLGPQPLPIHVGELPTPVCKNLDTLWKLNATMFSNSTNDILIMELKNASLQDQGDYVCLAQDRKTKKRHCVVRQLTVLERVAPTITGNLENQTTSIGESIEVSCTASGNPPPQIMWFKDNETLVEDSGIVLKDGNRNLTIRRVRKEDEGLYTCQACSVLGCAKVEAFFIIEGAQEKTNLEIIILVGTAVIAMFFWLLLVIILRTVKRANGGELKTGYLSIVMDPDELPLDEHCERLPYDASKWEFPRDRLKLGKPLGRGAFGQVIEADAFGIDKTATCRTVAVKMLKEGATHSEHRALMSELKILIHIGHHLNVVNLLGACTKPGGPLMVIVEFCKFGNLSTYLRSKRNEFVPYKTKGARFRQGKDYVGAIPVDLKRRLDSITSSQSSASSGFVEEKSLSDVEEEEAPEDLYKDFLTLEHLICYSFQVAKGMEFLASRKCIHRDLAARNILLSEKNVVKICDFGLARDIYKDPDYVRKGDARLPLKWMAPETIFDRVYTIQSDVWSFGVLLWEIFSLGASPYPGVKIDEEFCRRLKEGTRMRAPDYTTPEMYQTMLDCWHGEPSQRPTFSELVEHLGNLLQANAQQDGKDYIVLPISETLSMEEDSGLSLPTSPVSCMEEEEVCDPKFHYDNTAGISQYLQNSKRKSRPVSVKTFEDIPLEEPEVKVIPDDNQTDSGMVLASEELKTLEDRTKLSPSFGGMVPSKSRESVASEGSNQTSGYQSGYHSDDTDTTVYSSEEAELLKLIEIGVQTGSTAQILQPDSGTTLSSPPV

[3] = molecular target: T1, human KDR-Fc fusion (R&D Systems …); test: phage binding screen on KDR-Fc; class legend in paragraph 246; remark: listed apart in the source
[4] = molecular target: KDR on human umbilical vein endothelial cells (HUVECs) (human, UniProt P35968 20-1356); test: cell-based or functional assay
KDR on human umbilical vein endothelial cells (HUVECs), sequence (P35968 20-1356): as above

[5] = molecular target: T1, human KDR-Fc fusion (R&D Systems …); test: fluorescence anisotropy, fluorescein-labeled peptide
[6] = molecular target: T1, human KDR-Fc fusion (R&D Systems …); test: Biacore, KDR-Fc on CM5 chip, unlabeled peptide
[7] = molecular target: VEGF165 (Peprotech #100-20) (UniProt P15692-4 27-191); test: fluorescence anisotropy, fluorescein-labeled peptide
VEGF165 (Peprotech #100-20), sequence (P15692 other isoform, or with tags, fused parts or gaps limits assumed): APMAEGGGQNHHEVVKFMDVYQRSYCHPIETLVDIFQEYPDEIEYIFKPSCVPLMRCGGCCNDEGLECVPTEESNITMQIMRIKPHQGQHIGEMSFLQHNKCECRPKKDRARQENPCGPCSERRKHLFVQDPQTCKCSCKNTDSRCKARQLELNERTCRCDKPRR

[8] = molecular target: T2, KDR/VEGF complex (KDR-Fc mixed or saturated with VEGF) (human, UniProt P35968 20-764; P15692 27-191); test: fluorescence anisotropy, fluorescein-labeled peptide, KDR-Fc with two fold excess VEGF
T2 construct: anisotropy: two fold molar excess of VEGF mixed with KDR-Fc; Biacore: KDR-Fc chip saturated with VEGF; also called KDR:VEGF165 complex
T2 sequence (P35968 20-764, chain 1 of 2): as the sequence (P35968 20-764) above
T2 sequence (P15692 other isoform, or with tags, fused parts or gaps, chain 2 of 2): as the sequence (P15692 other isoform, or with tags, fused parts or gaps limits assumed) above

WIECNKDGKCWHY [phage isolate WIECNKDGKCWHY]: binds [1].

Ac-AQDWYYDEILSMADQLRHAFLSGGGGGK([AEEA-AEEA-Biotin])-NH2 (peptide, part only; not given: neutravidin-HRP, not shown: large carriers, also: tetrameric complex with neutravidin-HRP) [tetrameric complex of biotinylated SEQ ID NO:356 (JJ spacer) with neutravidin-HRP] showed a ratio of specific binding to that of monomer (Tetramer) [2] of 16.

RGPCSGQPWHLCYYQ [phage isolate RGPCSGQPWHLCYYQ]: binds [3].

WVECNHKGLCREY [phage isolate WVECNHKGLCREY]: binds [1].

B1: dimer 17 (D17) (peptide)
peptide 1: AQDWYYDEILGRGGRGGRGGK
peptide 2: VCWEDSWGGEVCFRYDPGGGK
modifications: not fully specified; N-terminal acetyl; C-terminal Lys(JJ-Glut)-NH2; N-terminal acetyl; contains J (8-amino-3,6-dioxaoctanoyl); C-terminal Lys joined to linker K
For B1, the “IC50, VEGF-induced migration of HUVECs” value [4] was ~0.25 µM.

In the case of VCWEDSWGGEVCFRYDPGGGK [SEQ ID NO:337 monomeric free peptide (VCWEDSWGGEVCFRYDPGGGK)], the “IC50, receptor activation assay” value [4] is reported as 1 µM.

Ac-AQGDYVYWEIIELTGATDHTPPGGK-NH2 (not fully specified) [SEQ ID NO:307] was tested, and the Kd [5] was 0.18 µM and the “VEGF-induced KDR phosphorylation in HUVECs” value [4] was ≥ 50 % inhibition at 10 µM.

For Ac-GDDHMCRSPDYQDHVFCMYWDPGGGK-NH2 (disulfide 6-17 (inferred); not fully specified) [SEQ ID NO:295], the Kd [5] was 0.48 µM and the Kd [6] was 0.14 µM.

Work on Ac-AQDWYYDEILSMADQLRHAFLSGGGGGK([AEEA-AEEA-Biotin])-NH2 (peptide, part only; not given: control peptide and neutravidin-HRP, not shown: large carriers, also: neutravidin-HRP complex with biotinylated control peptide (trimer)) [neutravidin-HRP complex of SEQ ID NO:356 and control peptide, trimer] yielded a ratio of specific binding to that of monomer (Trimer) [2] of 5.7.

WIQCNHQGQCFHG [phage isolate WIQCNHQGQCFHG]: binds [1].

For Ac-AQDWYYDEILSMADQLRHAFLSGGGGGK([AEEA-AEEA-Biotin])-NH2 (peptide, part only; not given: control peptide and neutravidin-HRP, not shown: large carriers, also: neutravidin-HRP complex with biotinylated control peptide (dimer)) [neutravidin-HRP complex of SEQ ID NO:356 and control peptide, dimer], the ratio of specific binding to that of monomer (Dimer) [2] was 2.3.

For Ac-GDNWECGWSNMFQKEFCARPDPGGGK-NH2 (disulfide 6-17 (inferred); not fully specified) [SEQ ID NO:303], the Kd [5] was 0.21 µM and the Kd [6] was 0.99 µM.

B2: dimer 25 (D25) (peptide)
peptide 1: Ac-AGPTWCEDDWYYCWLFGTGGGK-NH2
peptide 2: Ac-GDSRVCWEDSWGGEVCFRYDPGGGK-NH2
modifications: disulfide I:6-I:13, II:6-II:16 (inferred); not fully specified (some residues, bridges); printed as Ac-AGPTWCEDDWYYCWLFGTGGGK{Ac-GDSRVCWEDSWGGEVCFRYDPGGGK[JJ-Glut-NH(CH_2)4-(S)-CH(NH_2)C(=O)-]-NH_2}-NH_2; also: heterodimer, chain 2 C-terminal Lys joined to linker
B2 was tested, and the “IC50, VEGF-induced migration of HUVECs” value [4] was 0.005 µM.

For Ac-GDPDTCTMWGDSGRWYCFPADPGGGK-NH2 (disulfide 6-17 (inferred); not fully specified) [SEQ ID NO:301], the Kd [5] was 0.49 µM, the “VEGF-induced KDR phosphorylation in HUVECs” value [4] was ≥ 50 % inhibition at 10 µM and the Kd [6] was 0.26 µM.

In the case of Ac-GDGSWCEMRQDVGKWNCFSDDPGGGK-NH2 (disulfide 6-17 (inferred); not fully specified) [SEQ ID NO:299], the Kd [5] is reported as 0.62 µM and the Kd [6] is reported as 0.18 µM.

IDFCKGMAPWLCADM [phage isolate IDFCKGMAPWLCADM]: binds [3].

With Ac-AGWIECYHPDGICYHFGTGGGK-NH2 (disulfide 6-13 (inferred); not fully specified) [SEQ ID NO:269] the Kd [5] was 0.32 µM, the “VEGF-induced KDR phosphorylation in HUVECs” value [4] was ≥ 50 % inhibition at 10 µM and the Kd [6] was 0.32 µM.

With Ac-GSDHHCYLHNGQWICYPFAPGGGK-NH2 (disulfide 6-15 (inferred); not fully specified) [SEQ ID NO:314] the Kd [5] was 0.26 µM and the Kd [6] was 0.15 µM.

For Ac-AQAFPRFGGDDYWIQQYLRYTDGGK-NH2 (not fully specified) [SEQ ID NO:306], the Kd [5] was 0.53 µM, the “VEGF-induced KDR phosphorylation in HUVECs” value [4] was ≥ 50 % inhibition at 10 µM and the Kd [6] was 0.25 µM.

Ac-AQRGDYQEQYWHQQLVEQLKLLGGK-NH2 (not fully specified) [SEQ ID NO:308] was tested, and the Kd [5] was 0.31 µM and the Kd [6] was 5.3 µM.

In the case of Ac-AQEPEGYAYWEVITLYHEEDGDGGK-NH2 (not fully specified) [SEQ ID NO:305], the Kd [5] is reported as 0.27 µM, the “VEGF-induced KDR phosphorylation in HUVECs” value [4] is reported as ≥ 50 % inhibition at 10 µM and the Kd [6] is reported as 0.73 µM.

B3: SEQ ID NO:324 (peptide)
peptide: Ac-AGGHPCKGMLPHTCWYEGTGGGK-NH2
modifications: disulfide 6-14 (inferred); not fully specified; also: C-terminal Lys fluorescein-labeled in some assay forms
In the case of B3, the binding result [7] is reported as “no binding” and the Kd [8] is reported as 3.3 µM.

GVECNHMGLCVSW [phage isolate GVECNHMGLCVSW]: binds [1].

In the case of Ac-AGWLECYAEFGHCYNFGTGGGK-NH2 (disulfide 6-13 (inferred); not fully specified) [SEQ ID NO:267], the “VEGF-induced KDR phosphorylation in HUVECs” value [4] is reported as ≥ 50 % inhibition at 10 µM.

PWTCWLEDHLACAML [phage isolate PWTCWLEDHLACAML]: binds [3].

With Ac-GDWWECK(ivDde)REEYRNTTWCAWADPGGGK-NH2 (disulfide 6-17 (inferred)) [Ac-GDWWECK(ivDde)REEYRNTTWCAWADPGGGK-NH2 (SEQ ID NO:366 having a blocked K)] the “VEGF-induced KDR phosphorylation in HUVECs” value [4] was ≥ 50 % inhibition at 10 µM.

WYWCEFYGVCSEE [phage isolate WYWCEFYGVCSEE]: binds [1].

MPWCSEVTWGWCKLN [phage isolate MPWCSEVTWGWCKLN]: binds [3].

Ac-GDGWACAKWPWGGEICQPSDPGGGK-NH2 (disulfide 6-16 (inferred); not fully specified) [SEQ ID NO:300] showed a Kd [5] of 1 µM and a Kd [6] of 1.5 µM.

GITCDELGRCVHW [phage isolate GITCDELGRCVHW]: binds [1].

For Ac-AGIDFCKGMAPWLCADMGTGGGK-NH2 (disulfide 6-14 (inferred); not fully specified) [SEQ ID NO:311], the Kd [5] was 0.73 µM and the Kd [6] was 0.18 µM.
